Test results from patent US20160031958A1 (OREGON HEALTH AND SCIENCE UNIVERSITY, published 2016).

Key:
[1] = target: T1, HA-REST E1009A/S1013A/S1024A/S1027A/S1030A (human, UniProt Q13127 1-1097); test: GST pull-down on glutathione agarose from co-transfected HEK293T cells, Western blot
T1 construct: mature; Expressed in HEK293T cells and tested in cell extracts; also called E1009A/S1013/24/27/30A; REST degron mutant; not shown: HA tag
T1 sequence (looked up): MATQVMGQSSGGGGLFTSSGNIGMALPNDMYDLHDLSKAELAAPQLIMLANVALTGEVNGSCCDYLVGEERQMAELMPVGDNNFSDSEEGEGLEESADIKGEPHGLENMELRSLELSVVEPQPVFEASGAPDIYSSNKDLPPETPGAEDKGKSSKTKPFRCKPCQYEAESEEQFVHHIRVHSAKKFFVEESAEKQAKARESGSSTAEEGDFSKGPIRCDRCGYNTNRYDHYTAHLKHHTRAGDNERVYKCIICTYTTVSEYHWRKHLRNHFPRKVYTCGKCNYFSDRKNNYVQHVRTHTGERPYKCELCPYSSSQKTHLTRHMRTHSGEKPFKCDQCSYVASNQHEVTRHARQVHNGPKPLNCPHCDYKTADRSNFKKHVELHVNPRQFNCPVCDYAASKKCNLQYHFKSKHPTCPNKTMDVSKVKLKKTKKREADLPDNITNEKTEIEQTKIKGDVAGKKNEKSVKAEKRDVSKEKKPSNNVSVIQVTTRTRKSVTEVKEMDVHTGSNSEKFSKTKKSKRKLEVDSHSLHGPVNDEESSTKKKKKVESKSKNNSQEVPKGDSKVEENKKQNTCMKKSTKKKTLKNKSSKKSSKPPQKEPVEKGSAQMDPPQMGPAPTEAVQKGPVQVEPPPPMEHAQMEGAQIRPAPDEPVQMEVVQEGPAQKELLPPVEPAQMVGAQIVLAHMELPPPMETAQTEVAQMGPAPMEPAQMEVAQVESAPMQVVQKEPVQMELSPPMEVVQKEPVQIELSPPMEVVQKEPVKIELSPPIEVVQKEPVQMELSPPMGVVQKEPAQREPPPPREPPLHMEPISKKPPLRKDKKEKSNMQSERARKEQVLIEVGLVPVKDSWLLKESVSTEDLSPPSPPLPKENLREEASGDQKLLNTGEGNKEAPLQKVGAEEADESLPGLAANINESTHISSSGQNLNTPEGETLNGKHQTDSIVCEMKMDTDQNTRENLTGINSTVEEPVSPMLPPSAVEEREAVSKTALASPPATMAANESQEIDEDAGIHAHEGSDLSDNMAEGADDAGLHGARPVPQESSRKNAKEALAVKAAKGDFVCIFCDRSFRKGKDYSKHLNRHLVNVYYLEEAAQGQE
Procedure: HA-REST cDNAs were transfected into HEK293T cells along with GST-βTrCP, and FLAG-Dominant Negative Cull to stabilize REST. Cell extracts were collected on glutathione agarose and probed with anti-HA or anti-GST antibodies.
Whole cell lysates were prepared and immunoprecipitated following the procedures in Ballas N et al, 2001 supra and Nesti E et al, Mol Biol Cell 15, 4073-4088 (2004); incorporated by reference herein. Western blots were performed by standard procedures using antibodies described below and analyzed using anti IgG conjugated to infrared dyes (ThermoFisher) on an Odyssey® infrared fluorescence imager (LiCor). For detecting phosphorylated REST at S861/S864, cell extracts were prepared lacking phosphatase inhibitors. For phosphatase treatment, 75 μg of total protein was treated with 600 U lambda phosphatase (New England Biolabs) or with buffer alone at 30° C. for 1 h, according to the manufacturer's protocol. Thirty-five μg of treated protein were resolved by SDS-PAGE and Western blotted with the non-phospho-depleted anti REST phospho antibody (rabbit #101) at 1:500 in 3% BSA/1×TBS-0.5% Tween-20® overnight at 4° C., followed by anti-rabbit IgG-IR680 conjugated secondary antibody (Thermo Fisher) at 1:15000 in 5% milk/TBS-Tween for 1 hour at room temp. Infrared fluorescence was detected on the Odyssey® imager (LiCor) in the 700 nm channel. […]

[2] = target: T2, Pin1 (peptidyl-prolyl cis/trans isomerase), human (human, UniProt Q13526 1-163); test: co-immunoprecipitation from transfected HEK293T cells, Western blot
T2 construct: also called Human Pin1
Procedure: FIG. 4A is an image of a Western blot of co-immunoprecipitation analysis showing Pin1 is present in REST (810-910) immunoprecipitates in a phospho-dependent manner. HEK293T cells were transfected with Pin1 cDNA and either WT or mutant (S861A/S864A) FLAG-REST (810-910) or FLAG-control (595-694) peptide cDNAs (FIG. 3). After 48 hours, the cells were extracted and immunoprecipitated. Western blots were probed with the indicated antibodies.
To confirm this, HEK cells were transfected with FLAG-Pin1 and cDNAs encoding the 100 amino acid peptides described above containing an S861/S864 or an S861A/S864A sites. Pin1 was present in immunocomplexes of unmutated REST (810-910) reporter peptides, but not phosphorylation-resistant mutant S861A/S864A peptides (FIG. 4A). […]
Whole cell lysates were prepared and immunoprecipitated following the procedures in Ballas N et al, 2001 supra and Nesti E et al, Mol Biol Cell 15, 4073-4088 (2004); incorporated by reference herein. Western blots were performed by standard procedures using antibodies described below and analyzed using anti IgG conjugated to infrared dyes (ThermoFisher) on an Odyssey® infrared fluorescence imager (LiCor). […]

HA-REST S861A/S864A = target: T3, HA-REST S861A/S864A (human, UniProt Q13127 1-1097); test: FLAG immunoprecipitation from transfected HEK293T cells, Western blot
T3 construct: mature; Expressed in HEK293T cells and tested in cell extracts; also called mutant S861A/S864A REST; not shown: HA tag
T3 sequence (looked up): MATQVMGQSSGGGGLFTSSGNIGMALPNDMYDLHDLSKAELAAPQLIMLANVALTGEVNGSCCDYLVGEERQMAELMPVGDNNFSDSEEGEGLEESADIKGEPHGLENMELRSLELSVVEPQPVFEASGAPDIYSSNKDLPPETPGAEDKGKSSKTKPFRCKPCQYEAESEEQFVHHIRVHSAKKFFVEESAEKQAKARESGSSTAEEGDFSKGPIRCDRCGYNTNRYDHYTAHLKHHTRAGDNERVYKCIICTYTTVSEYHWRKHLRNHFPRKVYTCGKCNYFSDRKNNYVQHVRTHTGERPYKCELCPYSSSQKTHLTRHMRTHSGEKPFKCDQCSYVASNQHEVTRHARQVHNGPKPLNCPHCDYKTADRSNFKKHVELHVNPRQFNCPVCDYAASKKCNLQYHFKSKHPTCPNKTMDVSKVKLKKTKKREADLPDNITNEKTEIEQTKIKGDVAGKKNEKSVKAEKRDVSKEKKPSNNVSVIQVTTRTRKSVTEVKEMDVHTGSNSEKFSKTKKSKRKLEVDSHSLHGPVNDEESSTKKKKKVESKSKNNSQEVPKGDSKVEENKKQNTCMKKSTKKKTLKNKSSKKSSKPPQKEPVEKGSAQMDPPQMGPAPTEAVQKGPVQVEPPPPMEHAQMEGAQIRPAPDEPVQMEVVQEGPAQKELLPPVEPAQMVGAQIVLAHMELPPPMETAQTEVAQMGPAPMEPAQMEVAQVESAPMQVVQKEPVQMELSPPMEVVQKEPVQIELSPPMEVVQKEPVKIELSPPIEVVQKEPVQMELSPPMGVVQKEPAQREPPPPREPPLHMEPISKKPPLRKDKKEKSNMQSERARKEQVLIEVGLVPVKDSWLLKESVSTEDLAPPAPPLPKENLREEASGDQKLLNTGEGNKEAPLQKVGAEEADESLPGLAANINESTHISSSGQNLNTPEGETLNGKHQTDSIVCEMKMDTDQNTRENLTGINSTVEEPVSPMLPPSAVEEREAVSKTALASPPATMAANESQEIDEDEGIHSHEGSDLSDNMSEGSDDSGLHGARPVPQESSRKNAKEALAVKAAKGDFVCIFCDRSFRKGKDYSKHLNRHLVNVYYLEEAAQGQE
Description: CTDSP1 was first identified as a nuclear phosphatase targeting the C-terminus of RNA polymerase II (R HR et al, BMB Rep 47, 192-196 (2014); Feng Y et al, Biochem Biophys Res Commun 397, 355-360 (2010); and Zhang Y et al, Mol Cell 24, 759-770 (2006); all of which are incorporated by reference herein). Subsequently it was implicated in REST repression of neuronal gene expression in P19 embryonal carcinoma cells that have the capacity to differentiate into neurons (Visvanathan J et al, Genes Dev 21, 744-749 (2007); incorporated by reference herein). […] REST was detected in FLAG-immunocomplexes only when the site was unmutated or double-substituted with glutamate, a phosphorylation-mimic.
Whole cell lysates were prepared and immunoprecipitated following the procedures in Ballas N et al, 2001 supra and Nesti E et al, Mol Biol Cell 15, 4073-4088 (2004); incorporated by reference herein. Western blots were performed by standard procedures using antibodies described below and analyzed using anti IgG conjugated to infrared dyes (ThermoFisher) on an Odyssey® infrared fluorescence imager (LiCor). […] Infrared fluorescence was detected on the Odyssey® imager (LiCor) in the 700 nm channel. […]

T2 sequence (Q13526 whole entry): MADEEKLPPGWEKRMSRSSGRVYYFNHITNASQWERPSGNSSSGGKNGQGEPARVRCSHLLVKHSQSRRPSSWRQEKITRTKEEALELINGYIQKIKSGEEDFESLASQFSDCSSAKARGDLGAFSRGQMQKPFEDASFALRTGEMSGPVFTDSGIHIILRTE

B1: GST-βTrCP (other, UniProt Q9Y297 1-605, looked up)
chain: MDPAEAVLQEKALKFMCSMPRSLWLGCSSLADSMPSLRCLYNPGTGALTAFQNSSEREDCNNGEPPRKIIPEKNSLRQTYNSCARLCLNQETVCLASTAMKTENCVAKTKLANGTSSMIVPKQRKLSASYEKEKELCVKYFEQWSESDQVEFVEHLISQMCHYQHGHINSYLKPMLQRDFITALPARGLDHIAENILSYLDAKSLCAAELVCKEWYRVTSDGMLWKKLIERMVRTDSLWRGLAERRGWGQYLFKNKPPDGNAPPNSFYRALYPKIIQDIETIESNWRCGRHSLQRIHCRSETSKGVYCLQYDDQKIVSGLRDNTIKIWDKNTLECKRILTGHTGSVLCLQYDERVIITGSSDSTVRVWDVNTGEMLNTLIHHCEAVLHLRFNNGMMVTCSKDRSIAVWDMASPTDITLRRVLVGHRAAVNVVDFDDKYIVSASGDRTIKVWNTSTCEFVRTLNGHKRGIACLQYRDRLVVSGSSDNTIRLWDIECGACLRVLEGHEELVRCIRFDNKRIVSGAYDGKIKVWDLVAALDPRAPAGTLCLRTLVEHSGRVFRLQFDEFQIVSSSHDDTILIWDFLNDPAAQAEPPRSPSRTYTYISR
notes: also called βTrCP-GST fusion; bTrCP; not shown: GST
B1: no binding [1].

B2: FLAG-REST (810-910)-GFP reporter peptide S861A/S864A (peptide)
chain: ISKKPPLRKDKKEKSNMQSERARKEQVLIEVGLVPVKDSWLLKESVSTEDLAPPAPPLPKENLREEASGDQKLLNTGEGNKEAPLQKVGAEEADESLPGLA
notes: also called mutant (S861A/S864A) FLAG-REST (810-910); phosphorylation-resistant mutant S861A/S864A peptide; not shown: N-terminal FLAG tag with linker; C-terminal eGFP tag (pEGFP-N1)
B2: no binding [2].

B3: FLAG-CTDSP1 (enzyme, not shown: small tags and cut ends)
chain: MDSSAVITQISKEEARGPLRGKGDQKSAASQKPRSRGILHSLFCCVCRDDGEALPAHSGAPLLVEENGAIPKQTPVQYLLPEAKAQDSDKICVVIDLDETLVHSSFKPVNNADFIIPVEIDGVVHQVYVLKRPHVDEFLQRMGELFECVLFTASLAKYADPVADLLDKWGAFRARLFRESCVFHRGNYVKDLSRLGRDLRRVLILDNSPASYVFHPDNAVPVASWFDNMSDTELHDLLPFFEQLSRVDDVYSVLRQPRPGS
notes: also called C-terminal domain small phosphatase
B3: no binding (HA-REST S861A/S864A).
